Data taken from patent publication US20200317776A1 (published 2020).
Read-outs that look alike come from different tables or passages of the source.

T1: human TREM2 expressed on cells (human, UniProt Q9NZC2 19-230)
T1 construct: BW5147.G.1.4 cells stably expressing human TREM2 together with Dap12, or endogenous TREM2 of primary human myeloid cells; also called huT2 BW; hTREM2 expressing cell line
T1 sequence: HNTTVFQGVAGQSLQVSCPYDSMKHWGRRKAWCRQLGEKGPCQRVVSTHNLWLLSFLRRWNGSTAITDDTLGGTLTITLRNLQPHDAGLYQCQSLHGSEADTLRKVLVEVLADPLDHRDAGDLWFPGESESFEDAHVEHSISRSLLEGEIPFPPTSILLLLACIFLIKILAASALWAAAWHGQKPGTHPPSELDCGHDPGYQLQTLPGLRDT

T2: human TREM2 Fc fusion (entire TREM2 ECD; only one Fc arm fused to TREM2) (human, UniProt Q9NZC2 19-174)
T2 construct: also called huTREM2-Fc; recombinant hTREM2
T2 sequence: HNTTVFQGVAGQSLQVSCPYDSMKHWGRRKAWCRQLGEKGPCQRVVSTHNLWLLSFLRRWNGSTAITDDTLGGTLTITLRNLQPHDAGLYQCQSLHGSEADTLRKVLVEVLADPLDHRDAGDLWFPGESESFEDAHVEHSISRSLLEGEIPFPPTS

T3: cynomolgus monkey TREM2 Fc fusion (entire TREM2 ECD; only one Fc arm fused to TREM2) (cynomolgus monkey, UniProt Q9NZC2 19-174 (human entry))
T3 construct: also called cyno TREM2-Fc
T3 chain: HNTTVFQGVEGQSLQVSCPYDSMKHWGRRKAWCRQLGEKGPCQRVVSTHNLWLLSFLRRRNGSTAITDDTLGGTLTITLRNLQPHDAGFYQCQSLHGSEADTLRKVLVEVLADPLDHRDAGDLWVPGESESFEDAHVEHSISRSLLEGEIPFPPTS

B1: AL2p-h50 (antibody, human IgG1, V domains shown)
VH: QVQLVQSGAEVKKPGSSVKVSCKASGYAFSSSWMNWVRQAPGQGLEWMGRIYPGDGDTNYAQKFQGRVTITADESTSTAYMELSSLRSEDTAVYYCARLLRNQPGESYAMDYWGQGTLVTVSS
VL: DVVMTQTPLSLSVTPGQPASISCRSSQSLVHSNGYTYLHWYLQKPGQSPQLLIYKVSNRFSGVPDRFSGSGSGTDFTLKISRVEAEDVGVYYCSQSTRVPYTFGQGTKLEIK
notes: humanized, human IgG1; Fab and IgG formats under one id
B2: AL2p-2 (antibody, V domains shown)
VH: QVQLVQSGAEVKKPGSSVKVSCKASGYAFSSSWMNWVRQAPGQGLEWMGRIYPGGGDTNYAQKFQGRVTITADESTSTAYMELSSLRSEDTAVYYCARLLRNQPGESYAMDYWGQGTLVTVSS
VL: DVVMTQTPLSLSVTPGQPASISCRSSQSLVHSNGYTYLHWYLQKPGQSPQLLIYKVSNRFSGVPDRFSGSGSGTDFTLKISRVEAEDVGVYYCSQSTRVPYTFGQGTKLEIK
notes: AL2p-h50 variant; Fab and IgG formats under one id
B3: AL2p-4 (antibody, V domains shown)
VH: QVQLVQSGAEVKKPGSSVKVSCKASGYAFSSSWMNWVRQAPGQGLEWMGRIYPGQGDTNYAQKFQGRVTITADESTSTAYMELSSLRSEDTAVYYCARLLRNQPGESYAMDYWGQGTLVTVSS
VL: DVVMTQTPLSLSVTPGQPASISCRSSQSLVHSNGYTYLHWYLQKPGQSPQLLIYKVSNRFSGVPDRFSGSGSGTDFTLKISRVEAEDVGVYYCSQSTRVPYTFGQGTKLEIK
B4: AL2p-5 (antibody, V domains shown)
VH: QVQLVQSGAEVKKPGSSVKVSCKASGYAFSSSWMNWVRQAPGQGLEWMGRIYPGDGDTNYAQKFQGRVTITADESTSTAYMELSSLRSEDTAVYYCARLLRNQPGESYAMDYWGQGTLVTVSS
VL: DVVMTQTPLSLSVTPGQPASISCRSSQSLVHSNRYTYLHWYLQKPGQSPQLLIYKVSNRFSGVPDRFSGSGSGTDFTLKISRVEAEDVGVYYCSQSTRVPYTFGQGTKLEIK
notes: AL2p-h50 variant; Fab and IgG formats under one id; also called AL2-5
B5: AL2p-59 (antibody, V domains shown)
VH: QVQLVQSGAEVKKPGSSVKVSCKASGYAFSSHWMNWVRQAPGQGLEWMGRIYPGEGQTNYAQKRQGRVTITADESTSTAYMELSSLRSEDTAVYYCARLLRNQPGESYAMDYWGQGTLVTVSS
VL: GVVMTQTPLSLSVTPGQPASISCRTSQSLVHSNQYTYLHWYLQKPGQSPQLLIYKVSNRVSGVPDRFSGSGSGTDFTLKISRVEAEDVGVYYCSQSTRVPYTFGQGTKLEIK
notes: Fab and IgG formats under one id
B6: AL2p-60 (antibody, IgG1, V domains shown)
VH: QVQLVQSGAEVKKPGSSVKVSCKASGYAFSSQWMNWVRQAPGQGLEWMGRIYPGEGDTNYARKFQGRVTITADESTSTAYMELSSLRSEDTAVYYCARLLRNQPGESYAMDYWGQGTLVTVSS
VL: GVVMTQTPLSLSVTPGQPASISCRSSQSLVHSNQYTYLHWYLQKPGQSPQLLIYKVSNRRSGVPDRFSGSGSGTDFTLKISRVEAEDVGVYYCSQSTRVPYTFGQGTKLEIK
B7: AL2p-h77 (antibody, human IgG1, V domains shown)
VH: QVQLVQSGAEVKKPGASVKVSCKASGYAFSSSWMNWVRQAPGQRLEWIGRIYPGDGDTNYAQKFQGRVTITADTSASTAYMELSSLRSEDTAVYYCARLLRNQPGESYAMDYWGQGTLVTVSS
VL: DVVMTQSPDSLAVSLGERATINCRSSQSLVHSNGYTYLHWYQQKPGQSPKLLIYKVSNRFSGVPDRFSGSGSGTDFTLTISSLQAEDVAVYYCSQSTRVPYTFGGGTKVEIK
notes: humanized, human IgG1; Fab and IgG formats under one id; also called A2p-h77
B8: AL2p-37 (antibody, IgG1, V domains shown)
VH: QVQLVQSGAEVKKPGASVKVSCKASGYAFSSQWMNWVRQAPGQRLEWIGRIYPGGGDTNYAGKFQGRVTITADTSASTAYMELSSLRSEDTAVYYCARLLRNQPGESYAMDYWGQGTLVTVSS
VL: DVVMTQSPDSLAVSLGERATINCRSSQSLVHSNGYTYLHWYQQKPGQSPKLLIYKVSNRFSGVPDRFSGSGSGTDFTLTISSLQAEDVAVYYCSQSTRVPYTFGGGTKVEIK
notes: Fab and IgG formats under one id; also called AL2p-37 huIgG1
B9: AL2p-62 (antibody, V domains shown)
VH: QVQLVQSGAEVKKPGASVKVSCKASGYAFSSQWMNWVRQAPGQRLEWIGRIYPGEGDTNYAGKFQGRVTITADTSASTAYMELSSLRSEDTAVYYCARLLRNQPGESYAMDYWGQGTLVTVSS
VL: DVVMTQSPDSLAVSLGERATINCRSSQSLVHSNQYTYLHWYQQKPGQSPKLLIYKVSNRFSGVPDRFSGSGSGTDFTLTISSLQAEDVAVYYCSQSTRVPYTFGGGTKVEIK
notes: as for B5

Columns and labels:
[1] = target: T1, human TREM2 expressed on cells; test: FACS, human DCs
In short: (§1)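 Cells were BW5147.G.1.4 stably expressing human TREM2 with Dap12, or human monocyte-derived dendritic cells differentiated 6 days with GM-CSF and IL-4. Antibodies bound 1 h on ice in PBS+2% FBS, then PE anti-human secondary 30 min on ice; flow cytometry read-out as mean fluorescence intensity.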

[2] = target: T4, human TREM2/DAP12 fusion protein (human, UniProt O43914 41-113, limits assumed); test: cell-based or functional assay
T4 sequence (O43914 other isoform, or with tags, fused parts or gaps limits assumed): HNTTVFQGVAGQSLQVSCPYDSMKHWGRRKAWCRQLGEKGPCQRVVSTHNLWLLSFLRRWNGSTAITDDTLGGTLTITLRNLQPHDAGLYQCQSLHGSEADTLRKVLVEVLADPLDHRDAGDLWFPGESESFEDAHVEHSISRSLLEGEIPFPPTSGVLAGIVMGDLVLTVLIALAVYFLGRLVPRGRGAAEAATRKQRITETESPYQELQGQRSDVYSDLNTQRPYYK

[3] = target: T1, human TREM2 expressed on cells; test: cell-based or functional assay
[4] = target: T2, human TREM2 Fc fusion (entire TREM2 …); test: BLI, IgG, avid
In short: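 Avid format: AHQ-loaded IgGs exposed to 100 nM human or cyno TREM2-Fc antigen, 3 min association, 3 min dissociation in buffer. Monovalent format: human TREM2-Fc loaded on AHQ sensors, exposed to 100 nM Fab. Kinetics fit to 1:1 model, run at 25° C.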

[5] = target: T2, human TREM2 Fc fusion (entire TREM2 …); test: BLI, Fab, monovalent
In short: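 TREM2 Fc fusion antigen was loaded onto AHQ biosensors, with a 60 s baseline in assay buffer. The sensors were then exposed to 100 nM antibody Fab for monovalent binding. Data were fitted to a 1:1 model, and the assay ran at 25 °C.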

[6] = target: T3, cynomolgus monkey TREM2 Fc fusion …; test: BLI, Fab, monovalent
[7] = target: T2, human TREM2 Fc fusion (entire TREM2 …); test: BLI, Fab, monovalent; remark: listed apart in the source
[8] = target: T4, human TREM2/DAP12 fusion protein; test: cell-based or functional assay; remark: listed apart in the source
[9] = target: T4, human TREM2/DAP12 fusion protein; test: cell-based or functional assay; remark: listed apart in the source
[10] = target: T1, human TREM2 expressed on cells; test: FACS, hTREM2 BW cells
In short: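 BW5147.G.1.4 cells stably co-expressing human TREM2 and Dap12, 1×10⁵ cells/well, incubated with anti-TREM2 antibody 1 h on ice in PBS/2% FBS. Anti-human PE secondary 30 min on ice; flow cytometry, binding as mean fluorescence intensity.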

[11] = target: T1, human TREM2 expressed on cells; test: FACS, hTREM2 BW cells; remark: listed apart in the source
In short: as §1

[12] = target: T1, human TREM2 expressed on cells; test: FACS, hTREM2 BW cells; remark: listed apart in the source
[13] = target: T1, human TREM2 expressed on cells; test: cell-based or functional assay; remark: listed apart in the source
[14] = target: T1, human TREM2 expressed on cells; test: FACS, hTREM2 BW cells; remark: listed apart in the source
[15] = target: T4, human TREM2/DAP12 fusion protein; test: cell-based or functional assay; remark: listed apart in the source

Binder | MFI [1] | Luciferase activation plate bound 33 nM IgG, FOC [2] | Luciferase activation soluble 10 nM IgG, FOC [2] | Survival huDCs plate bound IgG, AUC [3] | Kd [4] | Kd [6] | Kd [7] | luciferase activation, soluble IgG, EC50 [9] | Kd [11] | Kd [12] | other results
B1 | 26 MFI | 6.83 FOC | 1.26 FOC | 337000 AUC | 1.19 nM | 7700 nM | 112 nM | 63.1 nM | 3.7 nM |  | Kd [5]: 180 nM; Soluble luciferase activation at 10 µg/ml Fold over control [8]: 6.36 fold over control; cell binding (FOB) [10]: 78 FOB
B2 |  | 7.36 FOC | 1.7 FOC | 461000 AUC | 0.837 nM | 1400 nM | 63.3 nM | 23 nM | 2.2 nM |  | 
B3 |  | 7.42 FOC | 1.45 FOC |  |  |  |  | 66.2 nM |  |  | 
B4 |  | 9.99 FOC | 1.27 FOC | 710000 AUC |  | 4630 nM | 99.2 nM | 38.1 nM | 2 nM | 2 nM | 
B5 |  |  |  |  |  | 3.95 nM | 3.85 nM | 11.2 nM |  | 1.24 nM | 
B6 |  |  |  |  |  |  |  |  |  | 1.12 nM | EC50 viability, dendritic cells D558 [13]: 0.152 nM; EC50 viability, dendritic cells D559 [13]: 0.244 nM; EC50 viability, dendritic cells D560 [13]: 0.178 nM; EC50 viability, macrophages D559 [13]: 0.194 nM; EC50 viability, macrophages D560 [13]: 0.154 nM
B7 | 162 MFI | 6.77 FOC | 1.47 FOC | 381000 AUC | 1.17 nM | 184 nM | 102 nM | 20.1 nM | 3.9 nM |  | Kd [5]: 93.9 nM; Soluble luciferase activation at 10 µg/ml Fold over control [8]: 7.14 fold over control; cell binding (FOB) [10]: 83 FOB
B8 | 194 MFI | 9.42 FOC | 2.16 FOC | 680000 AUC | 0.779 nM | 16.1 nM | 23.8 nM |  | 2.9 nM |  | Bmax (MFI) [14]: 216000 MFI; Kd [14]: 1.17 nM; EC50 viability, dendritic cells D558 [13]: 4.19 nM; EC50 viability, dendritic cells D559 [13]: 6.16 nM; EC50 viability, dendritic cells D560 [13]: 4.47 nM; EC50 viability, macrophages D558 [13]: 1.24 nM; EC50 viability, macrophages D559 [13]: 18.3 nM; EC50 viability, macrophages D560 [13]: 31.8 nM; Plate bound IgG, fold over unstimulated control (25 nM IgG) [15]: 1.56 fold; Soluble IgG, EC50 [15]: 9.41 nM; Soluble IgG, fold over control IgG (17 nM IgG) [15]: 7.63 fold
B9 |  |  |  |  |  | 19.4 nM | 21.1 nM | 25.1 nM |  | 2.63 nM | 
